Results taken from the supplement of paper PMC12764529.
± gives the half width of the 95% confidence interval.

Columns and labels:
[1] = folding stability dG unfold (combined trypsin and chymotrypsin); higher = more stable
Outline: (§1)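 Sequencing followed digestion of designed mini-proteins with trypsin and chymotrypsin, each at 11 concentrations in threefold dilutions together with a no-protease condition. The mini-proteins were under 80 residues, had no cysteine, sat in a PA-tagged cDNA display construct, and were kept only if AlphaFold2 dimer inter-PAE was above 15. From the counts, Bayesian fitting gave K50, and unfolding free energy was derived against a sequence-predicted unfolded-state K50 and a shared folded-state K50, per protease or combined.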

[2] = folding stability dG unfold from chymotrypsin proteolysis; higher = more stable
Outline: as §1

[3] = folding stability dG unfold from trypsin proteolysis; higher = more stable
Outline: as §1

Sequence | folding stability dG unfold [1] | folding stability dG unfold [2] | folding stability dG unfold [3]
SAGGSAGGSAGGELKLLRIEVTGRAPYPTELLKTVEIVLPNEDVTEEQIRELLKELGIELSAGGSAGGSAGG [r7_903_TrMRF] | 0.0188 ± 0.19 kcal/mol | -0.505 ± 0.26 kcal/mol | 0.226 ± 0.046 kcal/mol
SAGGSAGGSAGGELKLLSVEEGPNETYTVSSSDGKLTVYTKPPDGSWKSTSLPLEPELLSAGGSAGGSAGGS [r10_99_JUSTAS] | 0.194 ± 0.1 kcal/mol | 0.317 ± 0.14 kcal/mol | -0.277 ± 0.057 kcal/mol
SAGGSAGGSAGGENNWMIFIEIKIEWEIKPTPDGKWKWEPEIEIKSIRIMPPNSPAAKDLSAGGSAGGSAGG [r7_889_TrROS] | 2.6 ± 0.24 kcal/mol | 2.51 ± 0.1 kcal/mol | 2.95 ± 0.18 kcal/mol
SAGGSAGGSAGGEPEVKVELRVELDEDGRLRVTLKVEFEDGTVERELELEAPVVFFPPEESAGGSAGGSAGG [r7_992_TrROS_Hall] | 2.49 ± 0.16 kcal/mol | 2.07 ± 0.093 kcal/mol | 2.73 ± 0.18 kcal/mol
SAGGSAGGSAGGEPIYIRINNYYIVINLDDGNIRVYPPMKGKKKKVPANDIKPIDPGDISAGGSAGGSAGGS [r10_709_TrROS] | 1.07 ± 0.076 kcal/mol | 0.813 ± 0.071 kcal/mol | 1.18 ± 0.025 kcal/mol
SAGGSAGGSAGGETIELKLPNGKVLRVEKDKEKGKTYKIYDTKTKKLVKTFKSKEALKKASAGGSAGGSAGG [r7_72_TrROS_Hall] | 1.02 ± 0.11 kcal/mol | 1.19 ± 0.17 kcal/mol | 0.755 ± 0.07 kcal/mol
SAGGSAGGSAGGETVVLVTYDKETKTLTVQTFELENGELKTTTKTVTLTDEQLESLPPASAGGSAGGSAGGS [r10_291_TrROS_Hall] | 1.87 ± 0.18 kcal/mol | 1.99 ± 0.083 kcal/mol | 1.39 ± 0.07 kcal/mol
SAGGSAGGSAGGEVIEIELPGKTKEEIEEAIKKLPENYKIEIKKDENGRIRVRIFRKEDLSAGGSAGGSAGG [r7_662_TrROS_Hall] | 1.44 ± 0.42 kcal/mol | 1.5 ± 0.17 kcal/mol | 1.6 ± 0.15 kcal/mol
SAGGSAGGSAGGFKLPPGKPIEFPIKHGGEPYPVEIWRDPNKLMIHFPGNNQWIPADDIKSAGGSAGGSAGG [r7_37_TrROS] | -0.931 ± 0.58 kcal/mol | -0.589 ± 0.87 kcal/mol | -0.828 ± 0.45 kcal/mol
SAGGSAGGSAGGFNIEVVPGEPGWVIKIEFPDHPITAFVDPEDGKLWIYNPDNGMIFPLSAGGSAGGSAGGS [r10_434_TrROS] | 2.03 ± 0.077 kcal/mol | 1.78 ± 0.084 kcal/mol | 2.2 ± 0.042 kcal/mol
SAGGSAGGSAGGFTIKIETRPMPMFSKDGKPLAEMNMYRIKIEVPDMPPGLADKLIDLIQSAGGSAGGSAGG [r7_450_TrROS] | 2.67 ± 0.22 kcal/mol | 2.67 ± 0.097 kcal/mol | 1.66 ± 0.11 kcal/mol
SAGGSAGGSAGGGIKIKIISVKPLPDGSVLVKAKIIFPDGKEKEILILFNKNGEIKIFEKSAGGSAGGSAGG [r7_860_TrMRF] | 3.71 ± 0.087 kcal/mol | 4.03 ± 0.069 kcal/mol | 3.04 ± 0.11 kcal/mol
SAGGSAGGSAGGGKKVKVIIAADKPEEAEKAIEKLEKETDLPLEDVIVIPREEAEKLGLASAGGSAGGSAGG [r7_84_TrMRF] | -0.553 ± 0.47 kcal/mol | -0.574 ± 0.14 kcal/mol | -1.27 ± 0.82 kcal/mol
SAGGSAGGSAGGGLRKITFETPLSDFEELVKALGLNVVSAEVEPGAGGLAKVTLLVEEGSAGGSAGGSAGGS [r10_999_TrMRF] | 1.55 ± 0.041 kcal/mol | 1.843 ± 0.016 kcal/mol | 1.04 ± 0.013 kcal/mol
SAGGSAGGSAGGGMAITTRPGSSEVSTTPVPSDVTASTTTPLASGEPVEVTYERVGDPTLSAGGSAGGSAGG [r7_21_JUSTAS] | 0.0781 ± 0.079 kcal/mol | -0.525 ± 0.16 kcal/mol | 0.405 ± 0.022 kcal/mol
SAGGSAGGSAGGGMESKTTVTEEFSPEEVKTVTTVTTYPDGSVTETPENVKVPPGALAGSAGGSAGGSAGGS [r10_280_JUSTAS] | 1.49 ± 0.11 kcal/mol | 1.92 ± 0.13 kcal/mol | 0.1 ± 0.053 kcal/mol
SAGGSAGGSAGGGMSFKKRKGSISLTLRVTLTLPNGTPATLDIELELEEETVEPVYPELESAGGSAGGSAGG [r7_926_JUSTAS] | 4.19 ± 0.24 kcal/mol | 4.76 ± 0.14 kcal/mol | 2.87 ± 0.086 kcal/mol
SAGGSAGGSAGGGMSSAPPVTITPVSETTERLPNGTLVRTTTYAVDDGSTVTTTTVTPVSSAGGSAGGSAGG [r7_948_JUSTAS] | 0.602 ± 0.1 kcal/mol | 0.952 ± 0.069 kcal/mol | -0.127 ± 0.099 kcal/mol
